Test [1] has as its target T1, Hepsin (human), recombinant, active (human, UniProt P05981 45-417).
T1 construct: In the Octet and ELISA assays it was biotinylated with Sulfo-NHS-LC-Biotin; also called human hepsin; active hepsin
The test is described as follows: phage competition ELISA: biotin-hepsin immobilised on NeutrAvidin plates, bound Fab25-phage detected with anti-M13-HRP, KD1 titrated as competitor of Fab25-phage.

For test [2], the target named is T1, Hepsin (human), recombinant, active. The test can be described thus: cell-based or functional assay.
Test [3] has as its target mouse hepsin extracellular domain (Ser45-Pro416) with C-terminal His-tag (mouse) (UniProt O35453). The test can be described thus: enzyme inhibition, S2765 substrate, tight binding inhibition fit (Ki app); Fab25, murine hepsin.
Test [4] deals with T1, Hepsin (human), recombinant, active. The test can be described thus: enzyme inhibition, S2765 substrate (ratio of Ki app). The method, then:
(§1) Enzymatic assays with synthetic substrates: Fab25, IgG25, control Fab, or control IgG were incubated with hepsin (1 nM for human and 2 nM for mouse hepsin) in Hepes buffer (20 mM Hepes, pH 7.5, 150 mM NaCl, 5 mM CaCl₂, 0.01% Triton X-100) for 40 min at room temperature. For experiments with 3,4-dichloro-isocoumarin (DCI), hepsin (1 nM) was incubated with DCI in Hepes buffer containing 0.5% DMSO for 40 min. S2765 was added (final concentration of 0.2 mM) and the linear rates of the increase in absorbance at 405 nm measured on a kinetic microplate reader (Versamax, Molecular Devices, Sunnyvale, Calif.). Data were expressed as fractional enzyme activity (vᵢ/vₒ) and fitted to a four parameter regression curve fitting program (Kaleidagraph Version 3.6, Synergy Software) to determine the IC₅₀ values. Values are the average±SD of three independent experiments. Kᵢ^app values for Fab25 and IgG25 were calculated by fitting the data to the equation for tight binding inhibition systems (Morrison, 1969; Olivero et al., 2005).

The target is the same in test [5]. The test can be described thus: enzyme inhibition, S2765 substrate, tight binding inhibition fit (Ki app); Fab25, human hepsin. On the procedure:
as §1

The target is the same in test [6]. The test can be described thus: cell-based or functional assay. This is another data set of the same source.
Test [7] has the same target. The test can be described thus: BLI (Octet RED), biotinylated hepsin on streptavidin sensor, Fab25 in solution, 1:1 fit. The method, then: Fab25 binding to hepsin: An Octet-RED system equipped with streptavidin SBC biosensor tips was purchased from ForteBio (Menlo Park, Calif.). Prior to the start of the experiment, the sensor tips were pre-wet for 15 minutes at 25° C. in a buffer containing 50 mM Hepes pH 7.5, 150 mM NaCl and 0.05% tween-20. Biotinylated hepsin (7.5 μg/ml) was captured on to the streptavidin sensor for 5 minutes with agitation at 1000 rpm. The sensors were briefly washed in buffer before dipping them on to the sample wells containing Fab25 (2-fold serial dilution starting from 200 nM) and buffer control. Association was monitored for 10 minutes and dissociation was followed for 30 minutes. The data was fit to 1:1 binding model using Octet-RED analysis software.

Test [8] concerns the target mouse hepsin extracellular domain (Ser45-Pro416) with C-terminal His-tag (mouse) (UniProt O35453).
Test [9] has as its target T1, Hepsin (human), recombinant, active. The test can be described thus: isothermal titration calorimetry, Fab25 titrated into active hepsin. On the procedure: FIG. 18: Isothermal titration calorimetric experiment of Fab25 binding to active hepsin. The association reaction is exothermic and the stoichiometry of binding is 1:1 as expected.
Isothermal Titration calorimetry: TC experiments were performed on a ITC₂₀₀ instrument (GE healthcare). Fab25 and hepsin were purified separately on a size exclusion chromatographic column (Superdex S200, GE healthcare), using a buffer containing 50 mM HEPES pH 7.5 and 150 mM NaCl. The sample cell (204 μl) was loaded with hepsin (14 μM) and the Fab25 concentration in the syringe was 138 μM. A titration experiment typically consisted of 20 injections, each of 2 μL volume and 180 sec duration, with a 3 min interval between additions. The stirring rate was 1000 rpm. Raw data were integrated, corrected for nonspecific heats, normalized for concentration, and analyzed according to a 1:1 binding model assuming a single set of identical binding sites. (The isothermal titration curve was registered and analyzed using ORIGIN software provided with the ITC instrument. The data were integrated to provide a titration curve; and, by using a nonlinear least-squares fit, the binding constant KA, the heat of binding (ΔH), and the stoichiometry of binding were extracted from the curve.
(In general: Isothermal titration calorimetry measures the heat released or taken up as one component is titrated into another.)

In another test the target is pro-hepsin (UniProt P05981 45-417, limits assumed). The test can be described thus: SPR (BIAcore 3000), Ab25 captured on CM5 chip, pro-hepsin injected, steady state analysis. The method, then:
(§2) FIG. 17: A. Surface plasmon resonance was used to measure the binding affinity of Ab25 with active human hepsin. Serial dilutions of hepsin (0.39 nM to 200 nM) were injected to a CM5 biosensor chip with captured Ab25 for 3 minutes and the dissociation was monitored for 15 minutes. […] Serial dilutions of pro-hepsin (195 nM to 80 μM) were injected to a CM5 biosensor chip with captured Ab25 for 2 minutes.
(§3) Binding of Ab25 to hepsin by surface plasmon resonance: Surface plasmon resonance measurements were performed on a BIAcore™-3000 instrument (GE Health Care, NJ) to determine binding affinity of the Ab25. Rabbit anti-human IgG were chemically immobilized (amine coupling) on CM5 biosensor chips and Ab25 was captured to give approximately 350 response units (RU). For kinetics measurements, two-fold serial dilutions of active hepsin (1 nM to 500 nM) were injected in HBS-P buffer at 25° C. with a flow rate of 30 μl/min. Association rates (kₐ) and dissociation rates (kd) were obtained by using a simple one-to-one Langmuir binding model (BIA-Evaluation) and the equilibrium dissociation constants (KD) were calculated (kd/kₐ). Due to rapid kinetics, a steady state measurement was used to determine the affinity of pro-hepsin with Ab25. […] The values of Req were calculated and plotted individually against C (concentration of pro-hepsin) using BIA-Evaluation to determine KD.
In general terms: SPR reads the build-up and loss of mass on a sensor chip optically.

Test [10] concerns the target T1, Hepsin (human), recombinant, active. The test can be described thus: enzyme inhibition, S2765 substrate, tight binding inhibition fit (Ki app); IgG25, not Fab; human hepsin. The method, then: as §1
The target is the same in test [11]. The test is described as follows: SPR (BIAcore 3000), Ab25 captured by anti-human IgG on CM5 chip, active human hepsin injected, 1:1 fit. On the procedure: as §2, §3

T1 sequence (P05981 45-417 limits assumed): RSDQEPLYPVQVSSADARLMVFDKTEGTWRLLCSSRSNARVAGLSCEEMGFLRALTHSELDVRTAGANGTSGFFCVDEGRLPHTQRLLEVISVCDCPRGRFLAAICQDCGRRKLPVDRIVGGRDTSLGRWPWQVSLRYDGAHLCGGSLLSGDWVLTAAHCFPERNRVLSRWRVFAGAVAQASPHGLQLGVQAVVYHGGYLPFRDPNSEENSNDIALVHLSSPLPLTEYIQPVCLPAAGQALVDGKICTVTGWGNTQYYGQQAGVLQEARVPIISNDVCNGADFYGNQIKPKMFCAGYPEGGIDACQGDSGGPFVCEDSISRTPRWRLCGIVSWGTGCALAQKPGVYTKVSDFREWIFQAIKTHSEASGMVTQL
Sequence of pro-hepsin (P05981 45-417 limits assumed): as above

B1: Kunitz domain inhibitor-1 (KD1) derived from HGFA-inhibitor-1 (HAI-1) (other, UniProt O43278 246-303, looked up)
chain: TEDYCLASNKVGRCRGSFPRWYYDPTEQICKSFVYGGCLGNKNNYLREEECILACRGV
Turning to B1, the “IC50 (read off the curve)” value in test [1] was about 200 pM.

B2: anti-hepsin antibody Fab25 (Fab, V domains shown)
VH: EVQLVESGGGLVQPGGSLRLSCAASGFNFSYSYMHWVRQAPGKGLEWVASIYSYYGSTYYADSVKGRFTISADTSKNTAYLQMNSLRAEDTAVYYCARSDSWSYKSGYTQKIYSKGLDYWGQGTLVTVSS
VL: DIQMTQSPSSLSASVGDRVTITCRASQSVSSAVAWYQQKPGKAPKLLIYSASSKGVPSRFSGSRSGTDFTLTISSLQPEDFATYYCQQYYSSYYLLTFGQGTKVEIK
notes: also called HpsFab25; Clone 25 (Fab form)
As a reminder, the Kd is a measure of binding affinity in units of concentration. Turning to B2, the “IC50 of hepsin-mediated pro-uPA activation (two-stage enzymatic assay)” value in test [2] was found to be 3.3 nM. Also, the Ki in test [3] came out at 329 nM; in [5], 4.1 nM. In addition, the “fold more potent inhibition than of murine hepsin” value in test [4] is about 80 fold. Besides, the “IC50 (read off the curve)” value in [6] is about 5 nM; in [8] it was 300 nM. For the same molecule, the Kd in test [7] is 2.55 nM; in test [9], 6.1 nM. Moreover, in test [9], the stoichiometry of binding came out at 1 Fab25 per hepsin.

B3: anti-hepsin antibody IgG25 (antibody, V domains shown)
VH: EVQLVESGGGLVQPGGSLRLSCAASGFNFSYSYMHWVRQAPGKGLEWVASIYSYYGSTYYADSVKGRFTISADTSKNTAYLQMNSLRAEDTAVYYCARSDSWSYKSGYTQKIYSKGLDYWGQGTLVTVSS
VL: DIQMTQSPSSLSASVGDRVTITCRASQSVSSAVAWYQQKPGKAPKLLIYSASSKGVPSRFSGSRSGTDFTLTISSLQPEDFATYYCQQYYSSYYLLTFGQGTKVEIK
notes: also called Ab25; mab 25
Take B3: the dissociation constant (Kd) in the test with pro-hepsin turned out to be 5.52 µM; in [11] it was 10.6 nM. The Ki in test [10] is 11.3 nM.

These data come from patent US20110262452A1 (Genentech, published 2011).
